In the domain aggregation screens of Martell et al. (2025):

Test: soluble fraction after stress (log2 fold change); higher = more stays soluble; pooled small domains, quantitative proteomics
Conditions: stress: 75 degC
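Also: 20 min heating vs room temperature control held 20 min.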

Row | Sequence | soluble fraction (log2)
1 | HMSVIETLLSDREREVLTHLVNGYDAKRIAEITGISTLTVRKHIANIYTKLHVNSKAQVISMAHKNKWF | -2.7
2 | HMSVIKERLTEFLTYKGIGQIKFAEAAGLSRGFVNVLGDGISSKSLNKISQAFPELNTLWLTTGEGEML | -1.72
3 | HMSVKTIRKTEFAKRLYSLMLEKNWNQSDLARASGMGRDSVSQYIRANNTPSPQNLKKLAEALGVEPVELY | -2.05
4 | HMSVKYLQIYHAIREKILSNEYAINQQLPDEITLTKEFNSSRMTVKKALDLLVSEGLIFRKRGQGTFVLSR | -3.67
5 | HMSVLDEVRKLSFHQRNAVFLFYFEGYSMKEIAQIFHVKEGTVSSWLTRARKQLRKQMEEEVLYDESLP | -0.473
6 | HMSVLLDDLSPREREILQLVVEGHSSTKIAGMLGLASATVDTYRSRLMAKLHIDNLPDLVRFAIRHGLIS | -2.46
7 | HMSVLLKEEGSLQLARHGAAYFIIYSAQEHPNQRRHLKISEEESNRIMEGTPIEEIFLAYSG | -1.67
8 | HMSVLQGLIESFKAGDRNLYEVAERLNVTEPFLAEALKDYRARFPKGVQVDNFWISFRPYLTIAEV | -1.17
9 | HMSVNEKVRLFRELNQWSQEEMAERMNMSVAGYAKIERGETNISLHKLKQIASVLQIDLLDLVS | -2.1
10 | HMSVPEAAERAIDVAQMRRALGELSPEQQRVLELAYFGGLTRQEIARATGTPLGTVHTRARLGLQNLRARL | -0.306
11 | HMSVPRVWTDIQGRRVKGDFEGLRGDLVVLRVGGKSYAFPLVRLIASDQAYARSLVAGNPSK | -1.5
12 | HMSVPSLVGKTDSEAQSAIKSAGLKVGTVTYQYSDETEKGYVVSQSPYSGNKVNAGSTVNIVVSKGK | 0.0467
13 | HMSVPSVAAVREQTGLSQVKFASLLGVSVRTLQEWEQGRRAPSGAARTLLMVAAKNPQALLEV | -1.31
14 | HMSVSVEEDADGRVWVYYQDQKMDITDLFDENGVYGFNLEKGDRTVYVEVTKNADGTYSFTQTD | 0.427
15 | HMSVTIENQINTYFQTRDKISRDELVALIKKDFANWTDNTINIYVSSLQKRGIIHSLSRGMYALGN | -4.25
16 | HMSVTYRLLITSSPGQAEVFLDGKRVGITPFSARLAAGWYQVRVSKEGYNLWEQHVQLREDQRLTATLT | -3.17
17 | HMSWAAQVVDKMTNDQLIKSLNEIVNTGKQLGLDITVEQNGDKNFIMTVKDSKGNVQLVTPIG | 0.108
18 | HMSWEQELIEKANEIIDLYPEKRSALGPLLYLAQERDGYISDESIVEISNLVGITEVQVKSVASFYSMYK | -3.62
19 | HMSWNIHEAVEYYKGQDAPQNQFALVELLKEVQEHNGGVLTDIAVEEIAALLNTKVTFLNAVIKRYPSLK | -0.661
20 | HMSYEDLIQAVSGHFGIEIRALLSEDRKKENMIPRQVAMYLLKNKLHYTYERIGNIFSGRNHTAVMYSV | -0.263
21 | HMSYGKVQFVIDAKDAVLSIDGKETDYEKPVKLTYGSHTITVYSSDYDTWKRNLYVNSEKSTVVINLA | -3.13
22 | HMSYKDIKEASDTGTYRDEENNIDVKWQKLFNGHNEYFDIEAYRDGERVEINNQQADRYIYLIKQEMD | 0.678
23 | HMSYPEIFQSLTEREQKIADMIAEHLSNKEIAEKMFLSEGTIKQYINQIYSKLQITGDIRNKRKQLIELFH | -1.62
24 | HMSYTPGQWVEASMPNATFFRIVPSGNATADKMLAVATPMKVISTSGTYVKVELDSGDVGFVPEIMV | -0.199
25 | HMTAEASELRERIRAAMATLPPAQQRVIELAYFEGLTQREIAALLNEPLGTIKTRMRLGMRKLKDVL | -2.35
26 | HMTAIKAGDLVKITGTKYYGGQTIPGWVKNQNWYVQEVSGDRAVINKNESGTNAIMSPIRVSDLTPVS | 0.036
27 | HMTALPPNVSIDSDERRLLEAIGFDPVDMDVLARDGQFSSVDLFRLLVSLELKGLVENQHGAYQRL | -1.85
28 | HMTALSAREHEVLQLITRGYTADEIAAMLQISRHTALTYVRRIYSKLKVNSKAEAIFEVRQR | -0.926

Row | Sequence | soluble fraction (log2)
29 | HMTANPHKPEPLQIDTSDITPGVTVIHKAFGNGTVVSVDNNRILIDFDGIEKKFPFPGAFLYGFLQK | -0.547
30 | HMTAPDDFIRAEVTASGKNGMAVAELSKRVRTRFKSFKVRELGYPHLAGYLADVEGVRVYKQGRENWVAK | -0.899
31 | HMTAQASDIEKVLQVIETLGFRGHTLPGENRTAIGVTGNRGSIDPAHFENLPGVADAIRVTKPY | -0.0976
32 | HMTARPTLEKLKYMIHEAGITENSLKVIVATKGHYGLDADISTYSDDFITRWIIPNWTKIVQTISNNK | -1.81
33 | HMTASSYMGMQLGRLEELLKKEVLSLSEKTELKDLISDFDKIPEVVSPKIIGRYLQLKNQHFAKINA | -0.437
34 | HMTAVVPNFKGKLISELSNFVADKNVRYTIIDSIYDPEEKSGIVIKQDPEEKTQVKHNRIIYLYVTST | -1.51
35 | HMTDDFAGRFNELLIHNQETAVTAATRLEVSPAVITKWRQGKSIPSGEYIKRIVETYHVSADYLLGVIDTP | -0.838
36 | HMTDEEFSRIVKYTAVRYGINLYHKKVMVEGRLSNYLAANGFKSYTEYMDRVEADYTGQEAQNLINILTT | -2.53
37 | HMTDFDPDGREKLIKVQKALHFNNHQLADALRVGQATFSSYIYGRVAAGVPVRVVKAAEDLLKNSKATV | -0.531
38 | HMTDFDWSLFTQQLKRFNLFLSYDDREKLQTFQTLYGLNELDLAEYVAKASAGEKNGLNFNYLRQLINKEK | -1.46
39 | HMTDFNTFSDAIIAAVGSRASGLKVVDNAVSVMVDVSGLNEDQRVEIEADVRAAAEHAGAQSVRIMLT | -0.58
40 | HMTDLALHIGKTLRELRQRRGWSLDKTAQATGVSKAMLGQIERGESSPTVVTLWRISSGLQASFSEFLPP | -3.69
41 | HMTDLDVAVTMTVALEEAVNGATRRVRLPNGKELNVKIPAGVAAGQQIRLKGQGETAPGHRPGDVLITVNI | -0.712
42 | HMTDLQNDIQAFNLKKMSYQHETKKLEEKRNPEKLEKLEQDIQALYLRIMENPNMRAFDSAKQALYLQIM | -0.948
43 | HMTDLVVGLAGITLEPLRPAGKAEFNGSVVDVVSLGDYIEKSTAIQIVEIEGNRIVVHHGED | -0.865
44 | HMTDQYEVQNLVGLTVREAQEKEGVKDIFEVREVGSEFSAEYDAGLIVRQSPDAGEQRKGEGLVIEVWVSA | 0.106
45 | HMTDSLELADLLRRAIITGEYKPRERLVEMELAQKYSVSRTPVREALKHLEALGLVKMERYKGAMVAD | -0.911
46 | HMTDSQLVEAENHVALRQAMAHLGPRERELIGLYYFEEQSQTQIAARFGVSQMQVSRWLTSAVGRIRGQMA | 0.209
47 | HMTDWNTVEKETLSAIQKVLSGQASWIDLSPADHSIRHMQHEMVQQAGLISQSYGKEPMRRIRIYQNP | -0.039
48 | HMTEDADIERRLTGILASAGWYRSLAVEVKEGIVYLDGATASGNHRDWAGSLAAKTEGVVAVVNRIEVQP | -1.86
49 | HMTEDIAVRILEFLEDNNGFYALNDKTPSEKIHDLFGVSKKKFKIALGGLYKQRLITVSDAGVTLVK | -1.67
50 | HMTEDTPIIVERVVADIDENVVAIVRKFKDAFKSITAQREIKKKLRSILWVNYQIKDQEVFDKAYQYIEMY | 0.241
51 | HMTEEDVVIFSGLSDRDLKMVQTELANSGIKYTLPTSGTVSVPNSEIARAQMVLAMAGIPRS | 0.246
52 | HMTEEVIIQNYIGKNFNDVRDELEAKGITVDEPNMKYSDEFKENTIMAQSIKPGQPLKPGGFNSIKFDVS | -0.0167
53 | HMTEFFNMQDMFYFKLTGDVTSKERRQSLGKILGIGYGNAAQMVSRLNNYGITKEEFTNAINEIEKQMEAG | -0.715
54 | HMTEISGIEKFLASGAINGIGPAMAKKIVAEFGEKTLEIIAKSPNELLKVPGIGKKTAEKISTSYLEQ | -0.04
55 | HMTEKEEERTEDLNYYRLNLISMLKSSYPEYLDDEEFISNRSQEAAEAFEDAVRSGSNYLDASAESNRTLY | -0.229
